Each block holds one binder with its values, some of them ahead of it. *1 amine or outer side, *2 acyl side, *3 side chain or, on linkers, in order; H or OH if unused. Where no end group is shown, it is not given here. [ ]: non-standard residue; d: D form. Aci = acivicin, (2S)-amino[(5S)-3-chloro-4,5-dihydroisoxazol-5-yl]acetic acid, O=C([C@@H](N[*:1])[C@@H]1CC(Cl)=NO1)[*:2]; DON = [N-]=[N+]=CC(=O)CC[C@H](N)C(=O)O
Experiments:
Ac-PQPQLPF-NH2 = target: T1, Ac-PQPQLPF-NH2
T1 chain: PQPQLPF

PQPQLPY = target: T2, PQPQLPY
T2 chain: PQPQLPY

[1] = target: T3, recombinant human tissue transglutaminase (human, UniProt P21980 1-687, limits assumed); assay: time-dependent inactivation of tTG (9 uM) by 0-600 uM inhibitor; residual activity by glutamate dehydrogenase-coupled assay at 340 nm; double-reciprocal plot
T3 construct: also called tTGase; tTG
T3 sequence (looked up): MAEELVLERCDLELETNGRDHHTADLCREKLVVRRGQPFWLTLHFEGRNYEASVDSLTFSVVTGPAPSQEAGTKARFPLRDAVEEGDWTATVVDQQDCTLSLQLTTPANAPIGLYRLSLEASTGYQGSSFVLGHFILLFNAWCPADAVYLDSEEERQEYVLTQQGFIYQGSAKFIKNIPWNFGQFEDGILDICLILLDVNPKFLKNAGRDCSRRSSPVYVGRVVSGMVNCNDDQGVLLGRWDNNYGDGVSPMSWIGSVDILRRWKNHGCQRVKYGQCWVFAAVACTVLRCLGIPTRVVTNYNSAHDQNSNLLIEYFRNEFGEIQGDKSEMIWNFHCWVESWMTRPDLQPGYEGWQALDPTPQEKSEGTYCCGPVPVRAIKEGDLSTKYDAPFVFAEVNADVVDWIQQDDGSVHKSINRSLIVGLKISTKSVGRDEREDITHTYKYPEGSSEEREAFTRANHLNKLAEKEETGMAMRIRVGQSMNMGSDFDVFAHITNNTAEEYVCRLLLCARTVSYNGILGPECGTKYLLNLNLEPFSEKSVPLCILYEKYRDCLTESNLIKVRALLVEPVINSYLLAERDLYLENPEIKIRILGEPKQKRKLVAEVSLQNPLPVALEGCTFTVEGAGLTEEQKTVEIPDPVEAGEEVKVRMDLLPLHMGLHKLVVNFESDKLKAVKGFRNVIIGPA

[2] = target: T3, recombinant human tissue …; assay: time-dependent inactivation of tTG; residual activity by glutamate dehydrogenase-coupled assay at 340 nm; double-reciprocal plot

B1: recombinant human tissue transglutaminase (protein)
chain: MAEELVLERCDLELETNGRDHHTADLCREKLVVRRGQPFWLTLHFEGRNYEASVDSLTFSVVTGPAPSQEAGTKARFPLRDAVEEGDWTATVVDQQDCTLSLQLTTPANAPIGLYRLSLEASTGYQGSSFVLGHFILLFNAWCPADAVYLDSEEERQEYVLTQQGFIYQGSAKFIKNIPWNFGQFEDGILDICLILLDVNPKFLKNAGRDCSRRSSPVYVGRVVSGMVNCNDDQGVLLGRWDNNYGDGVSPMSWIGSVDILRRWKNHGCQRVKYGQCWVFAAVACTVLRCLGIPTRVVTNYNSAHDQNSNLLIEYFRNEFGEIQGDKSEMIWNFHCWVESWMTRPDLQPGYEGWQALDPTPQEKSEGTYCCGPVPVRAIKEGDLSTKYDAPFVFAEVNADVVDWIQQDDGSVHKSINRSLIVGLKISTKSVGRDEREDITHTYKYPEGSSEEREAFTRANHLNKLAEKEETGMAMRIRVGQSMNMGSDFDVFAHITNNTAEEYVCRLLLCARTVSYNGILGPECGTKYLLNLNLEPFSEKSVPLCILYEKYRDCLTESNLIKVRALLVEPVINSYLLAERDLYLENPEIKIRILGEPKQKRKLVAEVSLQNPLPVALEGCTFTVEGAGLTEEQKTVEIPDPVEAGEEVKVRMDLLPLHMGLHKLVVNFESDKLKAVKGFRNVIIGPA
KM (Ac-PQPQLPF-NH2): 400 µM
kcat (Ac-PQPQLPF-NH2): 0.667 s⁻¹
kcat/KM (Ac-PQPQLPF-NH2): 97000 min^-1M^-1
KM (PQPQLPY): 300 µM
kcat (PQPQLPY): 0.467 s⁻¹

Ki [1]: 780 µM
B2: Pro-Gln-Pro-Aci-Leu-Pro-Tyr (peptide)
peptide: PQP[Aci]LPY
notes: Free termini; also called PQPAciLPY; PQP-X-LPY with X = Aci

Ki [2]: 0.07 µM
B3: Ac-Pro-Gln-Pro-Don-Leu-Pro-Phe-NH2 (peptide)
peptide: Ac-PQP[DON]LPF-NH2
SMILES: CC(=O)N1CCC[C@H]1C(=O)N[C@@H](CCC(N)=O)C(=O)N1CCC[C@H]1C(=O)N[C@@H](CCC(=O)C=[N+]=[N-])C(=O)N[C@@H](CC(C)C)C(=O)N1CCC[C@H]1C(=O)N[C@@H](Cc1ccccc1)C(N)=O
notes: here X = DON; also called Ac-PQP-X-LPF-NH2 with X = DON; compound 41
